{
  "source": "paper PMC8585765",
  "about": "“An OsKala3, R2R3 MYB TF, Is a Common Key Player for Black Rice Pericarp as Main Partner of an OsKala4, bHLH TF” (Frontiers in Plant Science, 2021)",
  "binders": {"B1": {"name": "OsKala3 (natural protein, rice (Oryza sativa), UniProt O23891 1-321, looked up)", "chain": "MGRKPCCSKEGLNRGAWTAMEDDILVSYIAKHGEGKWGALPKRAGLKRCGKSCRLRWLNYLRPGIKRGNISGDEEELILRLHTLLGNRWSLIAGRLPGRTDNEIKNYWNSTLSKRVAMQRTAAATSMPAAATTSSNADAAGAAARRRRSPEPRTVVVSPIRTKALRCNNNSSSGIVVVQQAGACSHGGRPPESGAPGDAAADKVATPQAVQQQQQQELAGAEDDDDLPVPAVCIDLDLDDIELGGLDGFLISPWRGGGHDDGNAAAGAVPNLPMPIGYKLGGAGGGGEAGAVDLEALLGQLEAEEDDDGDHHHHHHHHHHQ"}},
  "target": "T1, OsKala4 (rice (Oryza sativa), UniProt Q948Y2 1-451)",
  "T1 sequence (looked up)": "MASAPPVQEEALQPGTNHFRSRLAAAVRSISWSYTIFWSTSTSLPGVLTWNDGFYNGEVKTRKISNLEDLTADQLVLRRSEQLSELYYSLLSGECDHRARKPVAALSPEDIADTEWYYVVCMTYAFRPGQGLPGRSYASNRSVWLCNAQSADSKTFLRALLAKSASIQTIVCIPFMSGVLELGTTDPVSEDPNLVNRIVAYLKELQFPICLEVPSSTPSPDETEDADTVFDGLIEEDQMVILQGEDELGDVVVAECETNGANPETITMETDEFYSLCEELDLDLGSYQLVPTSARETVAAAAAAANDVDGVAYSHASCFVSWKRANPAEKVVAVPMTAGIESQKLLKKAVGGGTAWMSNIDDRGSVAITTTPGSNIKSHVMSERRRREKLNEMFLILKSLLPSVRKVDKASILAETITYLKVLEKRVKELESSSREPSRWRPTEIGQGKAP",
  "test": "cell-based or functional assay",
  "data": [
    {"binder": "B1", "values": [
      {"measurement": "dual-luciferase reporter assay in transiently transfected rice protoplasts; proOsCHI:LUC reporter; co-transfection of OsKala3 and OsKala4 compared to OsKala3 alone", "result": 4, "unit": "fold"}
    ]}
  ]
}
